The source of these data is paper PMC2749821.

The target in experiment [1] is T1, activin receptor type I (ActR-I) ectodomain, human (human), Q04771.
T1 chain: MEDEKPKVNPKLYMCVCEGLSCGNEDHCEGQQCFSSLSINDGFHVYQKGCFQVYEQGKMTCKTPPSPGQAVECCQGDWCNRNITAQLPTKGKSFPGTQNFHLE
Put plainly: SPR; Biacore 2000; ligands as analyte over biotinylated receptor ectodomains (about 200 RU) on streptavidin-coated CM5 chips; HBS500 (10 mM HEPES pH 7.4, 500 mM NaCl, 3.4 mM EDTA, 0.005% P20), 25°C, 10 μl/min; apparent affinities, 1:2 interaction with avidity. Conditions: remark: other sources report otherwise.

The target of experiment [2] is T2, bone morphogenetic protein 7 (BMP7), human (human), P18075.
T2 chain: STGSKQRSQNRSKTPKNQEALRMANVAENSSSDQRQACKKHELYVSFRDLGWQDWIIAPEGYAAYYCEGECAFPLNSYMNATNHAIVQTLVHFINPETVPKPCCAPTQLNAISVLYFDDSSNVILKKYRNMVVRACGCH
Put plainly: SPR; Biacore 2000; receptor ectodomains as analyte over biotinylated ligands on streptavidin-coated CM5 chips; HBS500, 25°C, 10 μl/min; apparent affinities, 1:1 interaction. As to conditions: remark: other sources report otherwise. For orientation: SPR reads the build-up and loss of mass on a sensor chip optically.

In the next experiment the target is activin A, human (human) (UniProt P08476). Described as above.
The target of experiment [3] is preformed complex of BMP2 with immobilized BMPR-IA ectodomain (human) (UniProt P12643). Put plainly: SPR; ternary complexes by coinjection: 100 nM ligand perfused 2 min over the immobilized type I receptor ectodomain, then 100 nM ligand plus 0 to 64 μM soluble type II receptor ectodomain; HBS500, 25°C; equilibrium dose response.
Experiment [4] concerns the target preformed complex of BMP7 with immobilized BMPR-IB ectodomain (human | mouse) (UniProt P18075). The experiment is described as above.
For experiment [5], the target named is preformed complex of GDF5 with an immobilized type I receptor ectodomain (BMPR-IA or BMPR-IB) (UniProt P43026). Described as above.

B1: bone morphogenetic protein 7 (BMP7), human, P18075 293-431 (ligand)
chain: T2 chain
modifications: here or on the partner: biotin (sulfo-NHS-LC-biotin) where immobilised; N-biotinylated (sulfo-NHS-LC-biotin) where immobilised
In the case of B1, in experiment [1], the KD (eq) is greater than 0.5 µM and the Kd is greater than 0.5 µM.

B2: activin receptor type I (ActR-I) ectodomain, human, Q04771 21-123 (receptor)
chain: T1 chain
modifications: here or on the partner: N-biotinylated (sulfo-NHS-LC-biotin) where immobilised; biotin (sulfo-NHS-LC-biotin) where immobilised
In the case of B2, in experiment [2], the Kd stood at 58 µM.

B3: BMP receptor II (BMPR-II) ectodomain, human (receptor)
chain: RLCAFKDPYQQDLGIGESRISHENGTILCSKGSTCYGLWEKSKGDINLVKQGCWSHIGDPQECHYEECVVTTTPPSIQNGTYRFCCCSTDLCNVNFTENFPPPDTTPLSPPHSFNRDET
modifications: N-biotinylated (sulfo-NHS-LC-biotin) where immobilised
In the case of B3, the Kd with activin A, human (human) is 0.89 µM; in experiment [3], 22 µM; in experiment [4], 16 µM; in experiment [5] it was 32 µM. Moreover, in the experiment with activin A, human (human), the koff came to 0.076 s⁻¹. For the same molecule, in the experiment with activin A, human (human), the kon stood at 100000 M⁻¹ s⁻¹.

In general, koff refers to the rate constant with which the complex falls apart. For orientation: kon means the second-order rate constant of association.
